Common to all, as to assay: cryo-EM structure; single-particle cryo-EM of the co-purified R388 T4SS complex (VirB3-VirB10); 50 mM HEPES pH 7.6, 200 mM sodium acetate, 0.1% digitonin, 0.05 mM TDAO; maps of O-layer, I-layer, stalk, IMC protomer near-atomic, arches from the 6.18 Å map
The target in assay [1] is TrwE/VirB10 with Strep tag (R388 T4SS) (plasmid R388).
Assay [2] has as its target TrwI/VirB6 (R388 T4SS) (plasmid R388).
The target in assay [3] is TrwG/VirB8 (R388 T4SS) (plasmid R388).
Assay [4] has as its target TrwK/VirB4 (R388 T4SS) (plasmid R388).
Assay [5] has as its target TrwF/VirB9 (R388 T4SS) (plasmid R388).
Assay [6] addresses TrwJ/VirB5 (R388 T4SS) (plasmid R388).

In general, stoichiometry N refers to a count of units in the complex or per binding partner. Take “TrwE/VirB10 with Strep tag (R388 T4SS) (natural protein)”: the stoichiometry N in assay [1] came out at 14. The substance “TrwI/VirB6 (R388 T4SS) (natural protein)” displayed a stoichiometry N in assay [2] of 5. As to “TrwG/VirB8 (R388 T4SS) (natural protein)”, the stoichiometry N in assay [3] is 18. With “TrwK/VirB4 (R388 T4SS) (natural protein)”, in assay [4], the stoichiometry N was 12. “TrwF/VirB9 (R388 T4SS) (natural protein)” yielded a stoichiometry N in assay [5] of 16. Consider “TrwJ/VirB5 (R388 T4SS) (natural protein)”, for which, in assay [6], the stoichiometry N is 5.
